Laboratory results: paper PMC4938799, “LD Motif Recognition by Talin: Structure of the Talin-DLC1 Complex” (Structure(London, England:1993), 2016)

Target: T1, talin R8 domain
T1 construct: talin rod domain R8 (four-helix bundle), isolated domain used 15N-labelled for NMR; Construct limits, host and species are probably in the Supplemental Experimental Procedures; also called [15N]talin R8 domain
Test: NMR titration; KD fitted from 1H,15N-HSQC chemical-shift changes; 0.1 mM 15N talin R8, peptide/protein ratios 0.1 to 8; 298 K, 20 mM sodium phosphate pH 6.5, 50 mM NaCl
Conditions: both partners purified

| Binder | Kd |
| --- | --- |
| ENEDIFPELDDILYHVKGMQRIVNQWSEK (Paper numbering is the 1091-residue isoform; +437 gives canonical numbering.) [DLC1(461–489) peptide] | 48 µM |
| MDDLDALLADLESTTS [paxillin LD1 peptide] | 168 µM |
